Consider 4 molecules from US12269859B2, “Synthetic immune receptors and methods of use thereof” (Angeles Therapeutics, Inc., priority 2016, dated 2025).

In this assay the test system is target antigen-expressing cell line. Put plainly: Jurkat NFAT-GFP assay, coculture with target cell lines expressing the respective target antigen (summary Table 10A). The settings on record: relative % GFP positive cells; for NFAT-GFP ASSAY Positive Cell lines: RAJI: SIR-expressing Jurkat-NFAT-GFP cells cocultured with RAJI. Also on record: key: The signs +/−, +, 2+ etc. after the name of the cell lines indicate the relative degree of positivity on the Jurkat-NFAT-GFP assay as measured by the % GFP positive cells; +: relative degree of positivity on the Jurkat-NFAT-GFP assay as measured by the % GFP positive cells; 2+: relative degree of positivity on the Jurkat-NFAT-GFP assay as measured by the % GFP positive cells. The assay is classed as cell-based, human. The method, then: (B) Induction of NFAT promoter driven GFP expression. The control vector- and SIR-expressing Jurkat-NFAT-GFP cocultured for 4-24 hours with the target antigen-expressing cell line (described above) and their ability to bind to the target antigen is assayed by measuring induction of GFP expression using Flow Cytometry. Cellular supernatant is collected and assayed for the induction of cytokines (e.g., IL2).
Jurkat NFAT-GFP Assay For Synthetic Immune Receptors. The Jurkat-NFAT-GFP cells are engineered in such a way that the IL-2 promoter, which carries NFAT binding sites, is cloned upstream of the GFP gene. These cells have been used to study signaling via TCR and CAR. The different SIRs were stably expressed in Jurkat NFAT-GFP cells by lentiviral mediated gene transfer, followed by selection with puromycin. The SIR-expressing Jurkat-NFAT-GFP cells were cocultured with the target cells at E:T ratio of approximately 1:2 for approximately 4 hours to 18 hours. When the interaction between SIRs and their target antigen results in activation of the NFAT pathway, GFP expression is induced.
Induction of GFP expression by coculturing of Jurkat-NFAT-GFP cells expressing different SIR constructs and the different target cells was studied essentially as described previously (Wu, Roybal, Puchner, Onuffer, & Lim, 2015). GFP expression was monitored by FACS analysis. A few representative examples of this assay are shown in the FIG. 13A-B. In panel A, control Jurkat-NFAT-GFP cells or those expressing SIRs targeting CD19 (clone ID 051716-I08), MPL (Clone ID: 040716-A07) and BCMA (Clone ID: 011116-A07) were incubated with RAJI (top), HEL (middle) or U266 (bottom) cells, respectively. […] In panel B, Jurkat cells expressing SIR targeting CDH6 (Clone ID: 051716-J05), CD276 (Clone ID: 050516-Q06) and Her2/neu (Clone ID: 050516-I03) were incubated with SKOV3 (top) and […] (middle and bottom) cells, respectively. […] The Jurkat-NFAT-GFP cells were engineered to express different SIRs targeting other antigens and the experiment repeated upon coculture with the target cells expressing their respective target antigen. The Jurkat-NFAT-GFP (parental) cells were used as control. The names of different SIRs, their SEQ ID NOs, component antigen binding domains and TCR chains can be determined by reference to Tables 7A-7H. A SIR is considered positive in the assay in case the SIR expressing Jurkat-NFAT-GFP cells show greater % GFP positive cells when cultured with the target cell line as compared to parental Jurkat-NFAT-GFP cells. […] The signs +/−, +, 2+ etc. after the name of the cell lines indicate the relative degree of positivity on the Jurkat-NFAT-GFP assay as measured by the % GFP positive cells after culture of the SIR expressing Jurkat-NFAT-GFP cells with that cell line. […] In addition, great diversity of response against the same target cell line is observed with Jurkat cells expressing SIRs containing different antigen binding domains targeting the same antigen (e.g., SIRs having antigen binding domains derived form different CD19 antibodies) even when the SIRs share the same TCR chains and linkers. Finally, Jurkat cells expressing SIRs targeting different antigens (e.g. CD19 vs CD20) show a diversitiy of response when exposed to the same target cell line. Thus, a diverse immune response can be generated against a single target cell by combining SIRs with different TCR chains, linkers, antigen binding domains and target specificity. Table 10A also summarizes the results of GLuc based T cell cytotoxicity assay observed with different SIRs when exposed to their target cell lines. […]

B1: 012617-N02 (protein)
chain: MALPVTALLLPLALLLHAARPLEGKPIPNPLLGLDSTGSGEDLKNVFPPEVAVFEPSKAEIAHTQKATLVCLATGFYPDHVELSWWVNGKEVHSGVCTDPQPLKEQPALNDSRYCLSSRLRVSATFWQNPRNHFRCQVQFYGLSENDEWTQDRAKPVTQIVSAEAWGRADCGITSASYHQGVLSATILYEILLGKATLYAVLVSALVLMAMVKRKDSRGRAKRSGSGATNFSLLKQAGDVEENPGPTSMALPVTALLLPLALLLHAARPQSVVTQPPSVSAAPGQKVTISCSGSSSNIGNNYVSWYQQLPGTAPKLLIYDNNKRPSGIPDRFSGSKSGTSATLGITGLQTGDEADYYCGTWDGSLYTMLFGGGTKLTVLGGGGSGGGGSGGGGSEVQLVESGGGLVKPGGSLRLSCAASGFTFSNAWMSWVRQAPGKGLEWVGFIRSKAYGGTTEYAASVKGRFTISRDDSKSIAYLQMNNLKTEDTAVYYCARDGLYSSSWYDSDYWGQGTLVTVSSTREQKLISEEDGSGIQNPDPAVYQLRDSKSSDKSVCLFTDFDSQTNVSQSKDSDVYITDKCVLDMRSMDFKSNSAVAWSNKSDFACANAFNNSIIPEDTFFPSSDVPCDVKLVEKSFETDTNLNFQNLSVIGFRILLLKVAGFNLLMTLRLWSSRAKRSGSGVKQTLNFDLLKLAGDVESNPGPSRGHMTEYKPTVRLATRDDVPRAVRTLAAAFADYPATRHTVDPDRHIERVTELQELFLTRVGLDIGKVWVADDGAAVAVWTTPESVEAGAVFAEIGPRMAELSGSRLAAQQQMEGLLAPHRPKEPAWFLATVGVSPDHQGKGLGSAVVLPGVEAAERAGVPAFLETSAPRNLPFYERLGFTVTADVEVPEGPRTWCMTRKPGA
As to B1, the “NFAT-GFP ASSAY Positive Cell lines: HepG2” value (SIR-expressing Jurkat-NFAT-GFP cells cocultured with HepG2) is on record as “HepG2 (+/−)”.

B2: 101216-H03 (protein)
chain: MALPVTALLLPLALLLHAARPEIVMTQSPATLSLSPGERATLSCRASQDISKYLNWYQQKPGQAPRLLIYHTSRLHSGIPARFSGSGSGTDYTLTISSLQPEDFAVYFCQQGNTLPYTFGQGTKLEIKLEGKPIPNPLLGLDSTGSGEDLKNVFPPEVAVFEPSKAEIAHTQKATLVCLATGFYPDHVELSWWVNGKEVHSGVCTDPQPLKEQPALNDSRYCLSSRLRVSATFWQNPRNHFRCQVQFYGLSENDEWTQDRAKPVTQIVSAEAWGRADCGITSASYHQGVLSATILYEILLGKATLYAVLVSALVLMAMVKRKDSRGRAKRSGSGATNFSLLKQAGDVEENPGPTSMDWIWRILFLVGAATGAHSFEDIQMTQTTSSLSASLGDRVTISCRASQDISKYLNWYQQKPDGTVKLLIYHTSRLHSGVPSRFSGSGSGTDYSLTISNLEQEDIATYFCQQGNTLPYTFGGGTKLEITTREQKLISEEDGSGIQNPDPAVYQLRDSKSSDKSVCLFTDFDSQTNVSQSKDSDVYITDKCVLDMRSMDFKSNSAVAWSNKSDFACANAFNNSIIPEDTFFPSSDVPCDVKLVEKSFETDTNLNFQNLSVIGFRILLLKVAGFNLLMTLRLWSSRAKRSGSGVKQTLNFDLLKLAGDVESNPGPSRGHMTEYKPTVRLATRDDVPRAVRTLAAAFADYPATRHTVDPDRHIERVTELQELFLTRVGLDIGKVWVADDGAAVAVWTTPESVEAGAVFAEIGPRMAELSGSRLAAQQQMEGLLAPHRPKEPAWFLATVGVSPDHQGKGLGSAVVLPGVEAAERAGVPAFLETSAPRNLPFYERLGFTVTADVEVPEGPRTWCMTRKPGA
Take B2: the “NFAT-GFP ASSAY Positive Cell lines: RAJI” value is reported as “RAJI(2+), NALM6(2+)”. Moreover, the “NFAT-GFP ASSAY Positive Cell lines: NALM6” value (SIR-expressing Jurkat-NFAT-GFP cells cocultured with NALM6) is reported as “RAJI(2+), NALM6(2+)”.

B3: 091216-K03 (protein)
chain: MALPVTALLLPLALLLHAARPLEGKPIPNPLLGLDSTGSGEDLKNVFPPEVAVFEPSKAEIAHTQKATLVCLATGFYPDHVELSWWVNGKEVHSGVCTDPQPLKEQPALNDSRYCLSSRLRVSATFWQNPRNHFRCQVQFYGLSENDEWTQDRAKPVTQIVSAEAWGRADCGITSASYHQGVLSATILYEILLGKATLYAVLVSALVLMAMVKRKDSRGRAKRSGSGATNFSLLKQAGDVEENPGPTSTMALPVTALLLPLALLLHAARPEIVMTQSPATLSLSPGERATLSCRASQDISKYLNWYQQKPGQAPRLLIYHTSRLHSGIPARFSGSGSGTDYTLTISSLQPEDFAVYFCQQGNTLPYTFGQGTKLEIKGGGGSGGGGSGGGGSQVQLQESGPGLVKPSETLSLTCTVSGVSLPDYGVSWIRQPPGKGLEWIGVIWGSETTYYNSSLKSRVTISKDNSKNQVSLKLSSVTAADTAVYYCAKHYYYGGSYAMDYWGQGTLVTVSSTREQKLISEEDGSGIQNPDPAVYQLRDSKSSDKSVCLFTDFDSQTNVSQSKDSDVYITDKCVLDMRSMDFKSNSAVAWSNKSDFACANAFNNSIIPEDTFFPSSDVPCDVKLVEKSFETDTNLNFQNLSVIGFRILLLKVAGFNLLMTLRLWSSRAKRSGSGVKQTLNFDLLKLAGDVESNPGPSRGHMTEYKPTVRLATRDDVPRAVRTLAAAFADYPATRHTVDPDRHIERVTELQELFLTRVGLDIGKVWVADDGAAVAVWTTPESVEAGAVFAEIGPRMAELSGSRLAAQQQMEGLLAPHRPKEPAWFLATVGVSPDHQGKGLGSAVVLPGVEAAERAGVPAFLETSAPRNLPFYERLGFTVTADVEVPEGPRTWCMTRKPGA
modifications: Synthetic Immune Receptor (SIR)
Regarding B3, the “NFAT-GFP ASSAY Positive Cell lines: RAJI” value is listed as “RAJI (+/−)”.

B4: 072516-B05 (protein)
chain: MALPVTALLLPLALLLHAARPEIVMTQSPATLSLSPGERATLSCRASQDISKYLNWYQQKPGQAPRLLIYHTSRLHSGIPARFSGSGSGTDYTLTISSLQPEDFAVYFCQQGNTLPYTFGQGTKLEIKLEGKPIPNPLLGLDSTGSGEDLKNVFPPEVAVFEPSKAEIAHTQKATLVCLATGFYPDHVELSWWVNGKEVHSGVCTDPQPLKEQPALNDSRYCLSSRLRVSATFWQNPRNHFRCQVQFYGLSENDEWTQDRAKPVTQIVSAEAWGRADCGITSASYHQGVLSATILYEILLGKATLYAVLVSALVLMAMVKRKDSRGRAKRSGSGATNFSLLKQAGDVEENPGPTSMDWIWRILFLVGAATGAHSFEQVQLQESGPGLVKPSETLSLTCTVSGVSLPDYGVSWIRQPPGKGLEWIGVIWGSETTYYNSSLKSRVTISKDNSKNQVSLKLSSVTAADTAVYYCAKHYYYGGSYAMDYWGQGTLVTVSSTREQKLISEEDGSGIQNPDPAVYQLRDSKSSDKSVCLFTDFDSQTNVSQSKDSDVYITDKCVLDMRSMDFKSNSAVAWSNKSDFACANAFNNSIIPEDTFFPSSDVPCDVKLVEKSFETDTNLNFQNLSVIGFRILLLKVAGFNLLMTLRLWSSRAKRSGSGVKQTLNFDLLKLAGDVESNPGPSRGHMTEYKPTVRLATRDDVPRAVRTLAAAFADYPATRHTVDPDRHIERVTELQELFLTRVGLDIGKVWVADDGAAVAVWTTPESVEAGAVFAEIGPRMAELSGSRLAAQQQMEGLLAPHRPKEPAWFLATVGVSPDHQGKGLGSAVVLPGVEAAERAGVPAFLETSAPRNLPFYERLGFTVTADVEVPEGPRTWCMTRKPGA
modifications: Synthetic Immune Receptor (SIR)
On to B4, for which the “NFAT-GFP ASSAY Positive Cell lines: RAJI” value was “RAJI(+/−)”.
